Experimental data as given in patent EP4371564A2.
Like-named read-outs stand apart in the source and are kept apart here.

Legend:
[1] = molecular target: T4 capsid (empty head isolated from 10-amber 13-amber hoc-del soc-del T4 phage-infected E. coli) (bacteriophage T4) (UniProt P04535); experiment: Cas9-Soc-gRNA RNP co-displayed with Cre-Hoc on the same T4 capsid
[2] = molecular target: T4 capsid (empty head isolated from 10-amber 13-amber hoc-del soc-del T4 phage-infected E. coli) (bacteriophage T4) (UniProt P04535); experiment: Cas9-Soc in complex with gRNA displayed on T4 capsid
[3] = molecular target: T4 capsid (empty head isolated from 10-amber 13-amber hoc-del soc-del T4 phage-infected E. coli) (bacteriophage T4) (UniProt P04535); experiment: Cas9-Soc in complex with siRNA displayed on T4 capsid
[4] = molecular target: T4 capsid (empty head isolated from 10-amber 13-amber hoc-del soc-del T4 phage-infected E. coli) (bacteriophage T4) (UniProt P04535)
[5] = molecular target: T4 capsid (empty head isolated from 10-amber 13-amber hoc-del soc-del T4 phage-infected E. coli) (bacteriophage T4) (UniProt P04535); experiment: in vitro display on T4 heads, sedimentation, SDS-PAGE densitometry with gp23* as internal control
[6] = molecular target: T4 capsid (empty head isolated from 10-amber 13-amber hoc-del soc-del T4 phage-infected E. coli) (bacteriophage T4) (UniProt P04535); experiment: display on T4 capsids at increasing ratios, SDS-PAGE (FIG. 21)
[7] = molecular target: T4 capsid (empty head isolated from 10-amber 13-amber hoc-del soc-del T4 phage-infected E. coli) (bacteriophage T4) (UniProt P04535); experiment: Cre-Hoc co-displayed with Cas9-Soc-gRNA RNP on the same T4 capsid
[8] = molecular target: T4 capsid (empty head isolated from 10-amber 13-amber hoc-del soc-del T4 phage-infected E. coli) (bacteriophage T4) (UniProt P04535); experiment: copies displayed per T4 capsid, Soc-RGD against RGD-Hoc
[9] = molecular target: T4 capsid (empty head isolated from 10-amber 13-amber hoc-del soc-del T4 phage-infected E. coli) (bacteriophage T4) (UniProt P04535); experiment: Soc-TAT displayed on T4(Luci) capsids used for transduction (FIG. 28)
[10] = molecular target: T4 capsid (empty head isolated from 10-amber 13-amber hoc-del soc-del T4 phage-infected E. coli) (bacteriophage T4) (UniProt P04535); experiment: display on T4 capsids at increasing ratios, SDS-PAGE (FIG. 20)

Cas9-Soc (SEQ ID NO: 16) (from UniProt Q99ZW2 1-1368)
molecules per AV (molecules per capsid) [1]: 270 | copies per capsid (copies per capsid) [2]: 280 | copies per capsid (copies per capsid) [3]: 280 | Copies/ capsid (copies per capsid) [4]: 550

Cpf1-Soc (SEQ ID NO: 17)
Copies/ capsid (copies per capsid) [5]: 450

Cre-Hoc (SEQ ID NO: 18)
ratio of protein molecules to binding sites at saturation (molecules per binding site) [6]: 15 to 20 | molecules per AV (molecules per capsid) [7]: 50 | Copies/ capsid (copies per capsid) [4]: 95

Cre-Soc (SEQ ID NO: 22)
Copies/ capsid (copies per capsid) [4]: 630

GFP-Soc (from UniProt P03715 1-80)
Copies/ capsid (copies per capsid) [4]: 660

RGD-Hoc (SEQ ID NO: 19) (from UniProt P18056 1-376)
Copies/ capsid (copies per capsid) [5]: 85

Soc-RGD (from UniProt P03715 1-80)
fold copy number against RGD-Hoc [8]: 8.3 fold | Copies/ capsid (copies per capsid) [4]: 710

Soc-TAT (from UniProt P03715 1-80)
copies per capsid (copies per capsid) [9]: 520 | Copies/ capsid (copies per capsid) [4]: 750

β-Gal-Soc (from UniProt P00722 2-1024; P03715 1-80) (enzyme)
ratio of protein molecules to binding sites at saturation (molecules per binding site) [10]: 15 to 20 | Copies/ capsid (copies per capsid) [4]: 320
